Where “and” joins values, the source holds several entries; their conditions need not be identical. Equal values may be shown once.
How the values were obtained:
[1] = biological target: FXaI prepeptide expressed by plasmid pFSHI-6 (Met-His-His-His-His-His-His-Gly-Thr-Asp-Asp-Asp-Asp-Lys-FXaI) (Hirudo medicinalis)
[2] = tested on: FXa; test: chromogenic FXa inhibitory activity assay (hydrolysis of CHG); type: biochemical, bovine; conditions: for Inhibitory activity (specific activity), FXa: 1 mu = amount causing 50% inhibition with 2 nM FXa
Protocol: Increasing amounts of FXaI purified on Mono-Q were preincubated for 3 minutes with 2 pmol bovine FXa in a 1 ml cuvette. The initial rate of hydrolysis of the substrate CHG was monitored at 405 nm (see Example 2). Fraction 47 was the peak fraction of a particular purification experiment.
The assay of FXa inhibitory activity is based on the inhibition of the FXa-mediated hydrolysis of the chromogenic substrate methoxycarbonyl-D-cyclohexylglycyl-glycyl-arginyl p-nitroanilide (CHG) as described below.
The appropriate substrate concentration was determined from the molar absorbance which is 8210 at 342 nm. The reaction mixture contains 50 mM Tris-HCl pH 8.2, 5 mM CaCl2, 200 mM NaCl, 0.1% PEG, 40 μM substrate, and approximately 2 nM FXa. The FXa concentration is determined more precisely from the initial (first 20 seconds) rate of CHG hydrolysis at 40 μM in the absence of inhibitor based on the kinetic parameters mentioned above.
Inhibition of the increase in absorbance may be observed in the presence of the FXa inhibitory activity of an FXa inhibitor such as FXaI of the present invention. The inhibitor concentration is the difference in absorbance between the reaction in the presence and absence of inhibitor multiplied by the FXa concentration.
This determination assumes the formation of a 1:1 enzyme-inhibitor complex, and further assumes that the dissociation constant is low enough (i.e., tight binding) to enable essentially total binding of the inhibitor (FXaI) to the enzyme (FXa). In fact, the saturation shape of the dose-response curve (FIG. 3) provides evidence that a finite and not negligible dissociation of the inhibitor-enzyme complex occurs under these conditions. The dose response curve is represented by the degree of inhibition versus FXaI concentration and is further described in Section 5.2.
The degree of dissociation of the FXa-FXaI complex is characterized by the inhibition constant (Ki) and may be determined from the inhibited velocity of the hydrolysis of the chromogenic substrate CHG. […] The Ki of naturally occurring FXa in the chromogenic assay is about 9 nM.
The determination of inhibitor concentration determined by the above method is therefore probably underestimated. It was found useful to define the FXaI concentration as the protein concentration (IC50) required to obtain a constant degree of inhibition, usually 50% and to define the amount causing 50% inhibition under these reaction conditions to be 1 milliunit (mu) or 1 pmol. IC50 is generally higher than Ki, and depending on the type of inhibition, can be shown to depend variously on substrate concentration, Ki, Km and other factors (Segel, I. (1974) "Enzyme Kinetics", Wiley Interscience). In fact, the range of values of IC50 was determined to be about 10-20 nM.
The FXaI activity assay used to determine concentration during purification and characterization was performed in an Elisa Titertek Twin Reader, Type 380 (EF LAB). The final activity measurement of purified protein was also performed in a Phillips (model PU 8720) UV/Vis scanning spectrophotometer.

[3] = tested on: murine plasma; test: APTT coagulation assay in murine plasma; type: biochemical
Protocol: (§1) APTT (activated partial thromboplastin time) of fresh murine or human plasma was monitored by visual assessment of its clotting in the absence or presence of various amounts of FXaI. Briefly, FXaI (up to 50 μl), 100 μl of plasma and 100 μl of partial thromboplastin (Actin-FS) were incubated for 3 minutes at 37° C. The coagulation cascade was activated by the addition of 100 μl of 20 mM CaCl2. The FXaI concentration in the abscissa is based on the assumption that 1 mu=1 pmol. Murine plasma--.circle-solid.; human plasma--.diamond-solid.. The arrows indicate the FXaI concentration at which doubling of the APTT is obtained.
(§2) The inhibitory activity of FXaI was also assayed as the increase of the activated partial thromboplastin time (APTT) essentially as described in Spaethe, Haemostasis, AHS/Deutschland GmbH, Munich (1984), using as reagent Actin FS (Dade), which contains ellagic acid for activation of Factors XII and Factor XI, and soy bean phospholipid. Under these conditions, and in the presence of 20 mM CaCl2, only the intrinsic pathway of coagulation is activated.
(§3) Isoform A (the major fraction of naturally occurring FXaI isolated from DLS) was used in these experiments. […] The protein concentration of this batch was assayed by SDS-Bradford (Macart and Gerbaut, Clin. Chim. Acta 122:93-101 (1982)) and was determined to be ~20 μg/ml.

[4] = tested on: human plasma; test: APTT coagulation assay in human plasma; type: biochemical
Protocol: as §1, §2, §3

[5] = tested on: thrombin; test: thrombin inhibition assay according to Lottenberg et al.; type: biochemical
Protocol: The refolded and dialyzed protein so obtained was assayed for FXa inhibitory activity by the biochemical chromogenic assay described in Example 2. The results are shown in Table 6 as milliunits per mg protein (mu/mg). The amount of protein causing 50% inhibition in an assay mixture containing 2 nM FXa is defined as 1 mu. In addition, the refolded protein was also tested for its inhibitory effect on thrombin, another proteolytic enzyme of the coagulation cascade, which was assayed according to Lottenberg et al. Methods Enzymol. 80:341-361 (1981).

[6] = biological target: bovine Factor Xa (bovine) (UniProt P00743)
[7] = biological target: bovine Factor Xa (bovine) (UniProt P00743); remark: listed apart in the source
[8] = biological target: thrombin
[9] = biological target: Factor Xa
[10] = biological target: Factor Xa; test: prothrombinase complex assay, modified protocol (50 pM FXa, 1.35 µM prothrombin)
[11] = biological target: bovine Factor Xa (bovine) (UniProt P00743); remark: listed apart in the source
[12] = biological target: Factor Xa; test: prothrombinase complex assay (FXa 250 pM, prothrombin 2.67 µM, FVa, cephalin, Ca++)
[13] = biological target: bovine Factor Xa (bovine) (UniProt P00743); remark: listed apart in the source
Target sequence in this assay (P00743 41-492): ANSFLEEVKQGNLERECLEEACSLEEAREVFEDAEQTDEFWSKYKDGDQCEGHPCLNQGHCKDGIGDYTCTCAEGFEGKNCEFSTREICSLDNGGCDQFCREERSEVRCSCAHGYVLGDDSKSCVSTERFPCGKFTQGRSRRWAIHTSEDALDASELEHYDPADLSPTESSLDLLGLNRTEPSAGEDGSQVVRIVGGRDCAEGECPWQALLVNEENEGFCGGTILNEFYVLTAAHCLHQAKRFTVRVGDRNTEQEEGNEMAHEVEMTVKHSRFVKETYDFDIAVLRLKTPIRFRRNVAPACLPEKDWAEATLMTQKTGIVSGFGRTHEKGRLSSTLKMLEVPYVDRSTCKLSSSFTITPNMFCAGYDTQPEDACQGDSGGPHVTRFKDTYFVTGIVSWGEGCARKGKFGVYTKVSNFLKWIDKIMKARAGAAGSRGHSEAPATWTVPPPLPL

[14] = biological target: Factor Xa; remark: listed apart in the source
[15] = biological target: bovine Factor Xa (bovine) (UniProt P00743); remark: listed apart in the source
Target sequence in this assay (P00743 41-492): as above

[16] = biological target: bovine Factor Xa (bovine) (UniProt P00743); remark: listed apart in the source
Target sequence in this assay (P00743 41-492): as above

[17] = biological target: bovine Factor Xa (bovine) (UniProt P00743); remark: listed apart in the source
Target sequence in this assay (P00743 41-492): as above

Molecule: Enterokinase (Biozyme, Great Britain) (enzyme)
- cleavage efficiency by SDS-PAGE analysis [1]: 95%

Molecule: Isoform A: major fraction of naturally occurring FXaI from DLS, eluted by low salt gradient, 13-14 kD
- activity in the chromogenic assay, equivalent ([2]; assuming tight binding between FXa and inhibitor): 164 pmol/mL
- activity in the chromogenic assay ([2]; batch of ~20 μg/ml protein): 164 mu/ml
- concentration causing doubling of the APTT [3]: 3.5 mu/ml
- concentration causing doubling of the APTT, based on protein concentration [3]: 30 nM
- concentration causing doubling of the APTT [4]: 10 mu/ml
- concentration causing doubling of the APTT, based on protein concentration [4]: 87 nM

Molecule: Met-His-His-His-His-His-His-Gly-Thr-Asp-Asp-Asp-Asp-Lys-FXaI [FXaI prepeptide]
- FXa inhibitory specific activity ([2]; prior to cleavage with enterokinase): 1000-1200 mu/mg protein

Molecule: Refolded 11"f": refolded fusion protein: 63 N-terminal amino acids of modified Cu/Zn-SOD, met-phe-val linker, FXaI tyr26 to gly110; plasmid pDeo-S-XaI-11"f"
- Inhibitory activity (specific activity), FXa ([2]; listed as Refolded 11"f" Batch 1): 150 mu/mg
- Inhibitory activity (specific activity), FXa ([2]; listed as Refolded 11"f" Batch 2): 95 mu/mg
- Inhibitory activity (specific activity), FXa ([2]; listed as Refolded 11"f" Batch 3): 89 mu/mg
- specificity for FXa versus thrombin ([2]; ratio of specific activities): greater than 80 fold
- Inhibitory activity (specific activity), Thrombin [5]: < 1 mu/mg

Molecule: isoform A of naturally occurring FXaI isolated from DLS
- activity in the chromogenic assay [6]: 164 mu/ml

Molecule: isoform B of naturally occurring FXaI isolated from DLS
- Specific activity, mu/mg (inhibition of FXa, chromogenic assay) [7]: 507 mu/mg
- Specific activity, mu/mg (inhibition of thrombin) [8]: < 1 mu/mg

Molecule: naturally occurring FXaI (Factor Xa inhibitor) purified from dilute leech saliva (DLS) of Hirudo medicinalis
- IC50 in the prothrombinase complex assay (generation of thrombin from prothrombin) [9]: 0.19 nM
- Ki [10]: 0.12 nM
- IC50 in the chromogenic FXa assay [11]: 10 to 20 nM
- Ki [12]: 0.072 nM

B1: FXaI prepeptide expressed by plasmid pFSHI-6 (Met-His-His-His-His-His-His-Gly-Thr-Asp-Asp-Asp-Asp-Lys-FXaI) (protein)
chain: MHHHHHHGTDDDDKYEVIYVDDPCEDSDCEDGNKCSPVTNECDCSPVRCRLHCNFYVKDSNGCETCACEPKCKHKNCPTGHHCNKLTNKCELKKQRRMG
- FXa inhibitory specific activity in the chromogenic assay, prior to cleavage (mu/mg protein) [13]: 1000 and 1200

B2: mature recombinant FXaI obtained by enterokinase cleavage of the pFSHI-6 prepeptide (protein)
chain: YEVIYVDDPCEDSDCEDGNKCSPVTNECDCSPVRCRLHCNFYVKDSNGCETCACEPKCKHKNCPTGHHCNKLTNKCELKKQRRMG
- FXa inhibitory specific activity in the chromogenic assay, after removal of the extension peptide by chromatography [13]: 8000 mU/mg
- FXa inhibitory specific activity in the chromogenic assay, following cleavage with enterokinase (mu/mg protein) [13]: 4000 and 4500
- concentration causing doubling of the APTT [14]: 12.2 µg/mL

B3: mature recombinant FXaI obtained by CNBr cleavage of the FXaI dimer (protein)
chain: YEVIYVDDPCEDSDCEDGNKCSPVTNECDCSPVRCRLHCNFYVKDSNGCETCACEPKCKHKNCPTGHHCNKLTNKCELKKQRRMG
- specific activity in the chromogenic assay (route II: refolded, then cleaved with CNBr), A [15]: 2470 mu/mg
- specific FXa inhibitory activity in the chromogenic assay (route I: cleaved, then refolded) [16]: 1900 mU/mg
- specific activity in the chromogenic assay (route II: refolded, then cleaved with CNBr), B [17]: 4700 mu/mg

B4: cleaved, refolded product: mature FXaI from the FXaI dimer (plasmid pMLK-XaI-D-11"m") cleaved with CNBr, then refolded (protein)
chain: YEVIYVDDPCEDSDCEDGNKCSPVTNECDCSPVRCRLHCNFYVKDSNGCETCACEPKCKHKNCPTGHHCNKLTNKCELKKQRRMG
- specific FXa inhibitory activity ([2]; Route I: dimer cleaved with CNBr, then refolded): 1900 mU/mg
